For one substance, percentage of cells positive for pSTAT5 (flow cytometry / ImageStream), WT CD4+ T cells, 30 minutes of culture with IL-7 and percentage of cells positive for pSTAT5 (flow cytometry / ImageStream), mir-142-/- CD4+ T cells, 30 minutes of culture with IL-7 results are on record in US20140288149A1.

The target in this experiment is IL-7 receptor (IL-7R), mouse (mouse) (UniProt P16872). Nature of the experiment: cell-based or functional assay.
Chain of UniProt P16872 (P16872 21-459, chain 1 of 2): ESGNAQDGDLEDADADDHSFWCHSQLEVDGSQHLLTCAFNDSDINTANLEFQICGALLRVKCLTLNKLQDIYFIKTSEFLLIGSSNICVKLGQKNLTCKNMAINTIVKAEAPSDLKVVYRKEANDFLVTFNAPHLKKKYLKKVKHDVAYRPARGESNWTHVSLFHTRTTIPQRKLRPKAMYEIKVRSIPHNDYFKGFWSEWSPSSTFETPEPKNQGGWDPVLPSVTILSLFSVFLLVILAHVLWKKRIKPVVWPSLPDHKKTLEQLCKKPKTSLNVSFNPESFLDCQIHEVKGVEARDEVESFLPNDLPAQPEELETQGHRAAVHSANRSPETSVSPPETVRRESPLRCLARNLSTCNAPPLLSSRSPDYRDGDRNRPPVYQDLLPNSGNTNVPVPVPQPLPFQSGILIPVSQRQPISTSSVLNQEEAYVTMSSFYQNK
Chain of UniProt P16872 (P34902 23-369, chain 2 of 2, further chain): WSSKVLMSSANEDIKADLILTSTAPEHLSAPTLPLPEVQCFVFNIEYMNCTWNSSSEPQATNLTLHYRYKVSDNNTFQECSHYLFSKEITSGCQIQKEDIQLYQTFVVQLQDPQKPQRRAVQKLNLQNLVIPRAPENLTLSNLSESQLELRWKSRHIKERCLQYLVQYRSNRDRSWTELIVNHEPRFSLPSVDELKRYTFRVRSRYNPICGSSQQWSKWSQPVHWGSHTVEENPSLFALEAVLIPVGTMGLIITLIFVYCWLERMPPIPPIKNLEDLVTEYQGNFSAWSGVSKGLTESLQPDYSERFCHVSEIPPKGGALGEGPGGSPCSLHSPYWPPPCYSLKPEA

With “recombinant mouse IL-7 (from UniProt P10168 26-154) (ligand)”, the percentage of cells positive for pSTAT5 (flow cytometry / ImageStream), WT CD4+ T cells, 30 minutes of culture with IL-7 was greater than 71% and the percentage of cells positive for pSTAT5 (flow cytometry / ImageStream), mir-142-/- CD4+ T cells, 30 minutes of culture with IL-7 was found to be 8.7%.
